Source: the supplement of paper PMC9112550, “Optimization of the antimicrobial peptide Bac7 by deep mutational scanning” (BMC Biology, 2022)

These sequences were tested on Escherichia coli TOP10 (assay: shrunken log2 fold change of peptide-encoding DNA abundance (4.5 h post-induction vs induction); higher = less antimicrobial activity (less host growth inhibition)). Conditions: time post-induction: 4.5 h; library: site-saturation at positions 5, 18, 19, 20.
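Note: peptides expressed intracellularly from a pBAD plasmid library in pooled LB shake-flask culture, induced with 0.3% L-arabinose, DNA abundance read by NGS, three biological replicates, DESeq2 with apeglm shrinkage.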

Question: For RRIRDRPPRLPRPRPRPHWPPRP, which “shrunken log2 fold change” value is on record?
Answer: 0.197

Question: With RRIRDRPPRLPRPRPRPHYFPRP as the sequence, how does the “shrunken log2 fold change” value read?
Answer: -0.119

Question: RRIRDRPPRLPRPRPRPIDMPRP was tested. Which “shrunken log2 fold change” value did it give?
Answer: -0.185

Question: How did the “shrunken log2 fold change” value turn out when RRIRDRPPRLPRPRPRPIEIPRP was run?
Answer: -0.298

Question: For RRIRDRPPRLPRPRPRPIEYPRP, which “shrunken log2 fold change” value is on record?
Answer: -0.029

Question: Which “shrunken log2 fold change” value does the source give for RRIRDRPPRLPRPRPRPIGHPRP here?
Answer: 0.012

Question: For RRIRDRPPRLPRPRPRPIHCPRP, which “shrunken log2 fold change” value is on record?
Answer: -0.135

Question: RRIRDRPPRLPRPRPRPIHFPRP was tested. Which “shrunken log2 fold change” value did it give?
Answer: -0.0728

Question: For RRIRDRPPRLPRPRPRPIHYPRP, which “shrunken log2 fold change” value is on record?
Answer: -0.0149

Question: RRIRDRPPRLPRPRPRPIICPRP was tested. Which “shrunken log2 fold change” value did it give?
Answer: -0.0435

Question: Which “shrunken log2 fold change” value does the source give for RRIRDRPPRLPRPRPRPIIWPRP here?
Answer: 0.156

Question: For RRIRDRPPRLPRPRPRPIMDPRP, which “shrunken log2 fold change” value is on record?
Answer: 0.308

Question: How did the “shrunken log2 fold change” value turn out when RRIRDRPPRLPRPRPRPIPPPRP was run?
Answer: 0.239

Question: Which “shrunken log2 fold change” value does the source give for RRIRDRPPRLPRPRPRPIQIPRP here?
Answer: -0.384

Question: For RRIRDRPPRLPRPRPRPIQKPRP, which “shrunken log2 fold change” value is on record?
Answer: -0.0081

Question: RRIRDRPPRLPRPRPRPIQRPRP was tested. Which “shrunken log2 fold change” value did it give?
Answer: -0.01

Question: Which “shrunken log2 fold change” value does the source give for RRIRDRPPRLPRPRPRPIRVPRP here?
Answer: -0.185

Question: Which “shrunken log2 fold change” value does the source give for RRIRDRPPRLPRPRPRPIWGPRP here?
Answer: -0.0681

Question: How did the “shrunken log2 fold change” value turn out when RRIRDRPPRLPRPRPRPIWHPRP was run?
Answer: 0.144

Question: Which “shrunken log2 fold change” value does the source give for RRIRDRPPRLPRPRPRPIWNPRP here?
Answer: -0.0889

Question: RRIRDRPPRLPRPRPRPKANPRP was tested. Which “shrunken log2 fold change” value did it give?
Answer: 0.091

Question: With RRIRDRPPRLPRPRPRPKARPRP as the sequence, how does the “shrunken log2 fold change” value read?
Answer: 0.132

Question: With RRIRDRPPRLPRPRPRPKCCPRP as the sequence, how does the “shrunken log2 fold change” value read?
Answer: 0.112

Question: With RRIRDRPPRLPRPRPRPKECPRP as the sequence, how does the “shrunken log2 fold change” value read?
Answer: 0.184

Question: With RRIRDRPPRLPRPRPRPKEDPRP as the sequence, how does the “shrunken log2 fold change” value read?
Answer: 0.337

Question: How did the “shrunken log2 fold change” value turn out when RRIRDRPPRLPRPRPRPKEHPRP was run?
Answer: 0.0267

Question: How did the “shrunken log2 fold change” value turn out when RRIRDRPPRLPRPRPRPKELPRP was run?
Answer: 0.0843

Question: With RRIRDRPPRLPRPRPRPKENPRP as the sequence, how does the “shrunken log2 fold change” value read?
Answer: 0.0579

Question: For RRIRDRPPRLPRPRPRPKFNPRP, which “shrunken log2 fold change” value is on record?
Answer: -0.236

Question: RRIRDRPPRLPRPRPRPKGHPRP was tested. Which “shrunken log2 fold change” value did it give?
Answer: 0.0517

Question: RRIRDRPPRLPRPRPRPKGPPRP was tested. Which “shrunken log2 fold change” value did it give?
Answer: -0.0184

Question: Which “shrunken log2 fold change” value does the source give for RRIRDRPPRLPRPRPRPKGVPRP here?
Answer: -0.00195

Question: Which “shrunken log2 fold change” value does the source give for RRIRDRPPRLPRPRPRPKIQPRP here?
Answer: 0.0161

Question: For RRIRDRPPRLPRPRPRPKKKPRP, which “shrunken log2 fold change” value is on record?
Answer: -0.0718

Question: With RRIRDRPPRLPRPRPRPKLIPRP as the sequence, how does the “shrunken log2 fold change” value read?
Answer: 0.088

Question: For RRIRDRPPRLPRPRPRPKLNPRP, which “shrunken log2 fold change” value is on record?
Answer: 0.0523

Question: For RRIRDRPPRLPRPRPRPKMIPRP, which “shrunken log2 fold change” value is on record?
Answer: -0.185

Question: RRIRDRPPRLPRPRPRPKNSPRP was tested. Which “shrunken log2 fold change” value did it give?
Answer: 0.788

Question: Which “shrunken log2 fold change” value does the source give for RRIRDRPPRLPRPRPRPKNYPRP here?
Answer: -0.303

Question: Which “shrunken log2 fold change” value does the source give for RRIRDRPPRLPRPRPRPKQEPRP here?
Answer: 0.00491

Question: RRIRDRPPRLPRPRPRPKRTPRP was tested. Which “shrunken log2 fold change” value did it give?
Answer: 0.143

Question: With RRIRDRPPRLPRPRPRPKRVPRP as the sequence, how does the “shrunken log2 fold change” value read?
Answer: -0.0521

Question: With RRIRDRPPRLPRPRPRPKSAPRP as the sequence, how does the “shrunken log2 fold change” value read?
Answer: 0.0797

Question: How did the “shrunken log2 fold change” value turn out when RRIRDRPPRLPRPRPRPKSCPRP was run?
Answer: -0.0117

Question: For RRIRDRPPRLPRPRPRPKSKPRP, which “shrunken log2 fold change” value is on record?
Answer: -0.105

Question: For RRIRDRPPRLPRPRPRPKTAPRP, which “shrunken log2 fold change” value is on record?
Answer: 0.00938

Question: With RRIRDRPPRLPRPRPRPKVHPRP as the sequence, how does the “shrunken log2 fold change” value read?
Answer: -0.216

Question: RRIRDRPPRLPRPRPRPKYEPRP was tested. Which “shrunken log2 fold change” value did it give?
Answer: -0.00728

Question: With RRIRDRPPRLPRPRPRPKYKPRP as the sequence, how does the “shrunken log2 fold change” value read?
Answer: -0.739

Question: For RRIRDRPPRLPRPRPRPLCHPRP, which “shrunken log2 fold change” value is on record?
Answer: 0.0833

Question: Which “shrunken log2 fold change” value does the source give for RRIRDRPPRLPRPRPRPLCNPRP here?
Answer: -0.00406

Question: For RRIRDRPPRLPRPRPRPLCPPRP, which “shrunken log2 fold change” value is on record?
Answer: -0.00491

Question: For RRIRDRPPRLPRPRPRPLDDPRP, which “shrunken log2 fold change” value is on record?
Answer: 0.459

Question: For RRIRDRPPRLPRPRPRPLDQPRP, which “shrunken log2 fold change” value is on record?
Answer: 0.0626

Question: For RRIRDRPPRLPRPRPRPLELPRP, which “shrunken log2 fold change” value is on record?
Answer: -0.014

Question: Which “shrunken log2 fold change” value does the source give for RRIRDRPPRLPRPRPRPLEQPRP here?
Answer: 0.57

Question: How did the “shrunken log2 fold change” value turn out when RRIRDRPPRLPRPRPRPLFVPRP was run?
Answer: -0.168

Question: With RRIRDRPPRLPRPRPRPLFWPRP as the sequence, how does the “shrunken log2 fold change” value read?
Answer: 0.516

Question: RRIRDRPPRLPRPRPRPLGGPRP was tested. Which “shrunken log2 fold change” value did it give?
Answer: 0.461

Question: How did the “shrunken log2 fold change” value turn out when RRIRDRPPRLPRPRPRPLGMPRP was run?
Answer: 0.111

Question: Which “shrunken log2 fold change” value does the source give for RRIRDRPPRLPRPRPRPLHTPRP here?
Answer: -0.0544

Question: With RRIRDRPPRLPRPRPRPLKEPRP as the sequence, how does the “shrunken log2 fold change” value read?
Answer: -0.277

Question: With RRIRDRPPRLPRPRPRPLKIPRP as the sequence, how does the “shrunken log2 fold change” value read?
Answer: -0.297

Question: RRIRDRPPRLPRPRPRPLKTPRP was tested. Which “shrunken log2 fold change” value did it give?
Answer: 0.333

Question: How did the “shrunken log2 fold change” value turn out when RRIRDRPPRLPRPRPRPLKVPRP was run?
Answer: -0.0261

Question: With RRIRDRPPRLPRPRPRPLLTPRP as the sequence, how does the “shrunken log2 fold change” value read?
Answer: 0.35

Question: With RRIRDRPPRLPRPRPRPLMAPRP as the sequence, how does the “shrunken log2 fold change” value read?
Answer: 1.09

Question: Which “shrunken log2 fold change” value does the source give for RRIRDRPPRLPRPRPRPLNLPRP here?
Answer: -0.324

Question: With RRIRDRPPRLPRPRPRPLPEPRP as the sequence, how does the “shrunken log2 fold change” value read?
Answer: 0.0958

Question: RRIRDRPPRLPRPRPRPLPWPRP was tested. Which “shrunken log2 fold change” value did it give?
Answer: 0.572

Question: RRIRDRPPRLPRPRPRPLQVPRP was tested. Which “shrunken log2 fold change” value did it give?
Answer: 0.0133

Question: How did the “shrunken log2 fold change” value turn out when RRIRDRPPRLPRPRPRPLREPRP was run?
Answer: 0.714

Question: How did the “shrunken log2 fold change” value turn out when RRIRDRPPRLPRPRPRPLRIPRP was run?
Answer: 0.168

Question: For RRIRDRPPRLPRPRPRPLSMPRP, which “shrunken log2 fold change” value is on record?
Answer: -0.283

Question: Which “shrunken log2 fold change” value does the source give for RRIRDRPPRLPRPRPRPLTMPRP here?
Answer: 0.188
